These results are taken from US20100034834A1.

Where only a bound is given, the exact number is not on record here.

Assay [1] concerns the target NY-ESO-1 peptide … presented on peptide-pulsed T2 cells (UniProt P61769). In words: cell-based or functional assay.
Assay [2] has as its target g9-154 (gp100) peptide … presented on peptide-pulsed T2 cells (UniProt P61769). Nature of the assay: cell-based or functional assay.

Turning to “1G4 mut1 (G70A): WT 1G4 alpha chain + beta chain G70A (TCR)”, in assay [1], the IFN-γ secreted by transfected CD4+ T cells (Patient) with peptide-pulsed T2 cells worked out at 6380 pg/mL and the IFN-γ secreted by transfected CD8+ T cells (Patient) with peptide-pulsed T2 cells worked out at 10200 pg/mL. Also, in assay [2], the IFN-γ secreted by transfected CD4+ T cells (Patient) with peptide-pulsed T2 cells was under 30 pg/mL and the IFN-γ secreted by transfected CD8+ T cells (Patient) with peptide-pulsed T2 cells was under 30 pg/mL.

In assay [1], “1G4 mut2 (A71I): WT 1G4 alpha chain + beta chain A71I (TCR)” registered an IFN-γ secreted by transfected CD4+ T cells (Patient) with peptide-pulsed T2 cells of 8970 pg/mL and an IFN-γ secreted by transfected CD8+ T cells (Patient) with peptide-pulsed T2 cells of 10100 pg/mL. In addition, in assay [2], the IFN-γ secreted by transfected CD4+ T cells (Patient) with peptide-pulsed T2 cells is under 30 pg/mL and the IFN-γ secreted by transfected CD8+ T cells (Patient) with peptide-pulsed T2 cells was under 30 pg/mL.

As for “1G4 mut3 (G70A/A71I): WT 1G4 alpha chain + beta chain G70A/A71I (TCR)”, the IFN-γ secreted by transfected CD4+ T cells (Patient) with peptide-pulsed T2 cells in assay [1] was 10700 pg/mL; in assay [2] it was under 30 pg/mL. Moreover, the values for the IFN-γ secreted by transfected CD8+ T cells (Patient) with peptide-pulsed T2 cells in assay [1] and in assay [2] were 8860 pg/mL and under 30 pg/mL, respectively.
